Laboratory results published in US7078038.

Tests used:
[1] = biological target: wild gp120 fixed to CEM cells CD4+/CXCR4+ (HIV-1 (HXB2 clone of HIV-IIIB)) (UniProt P04578); assay: flow cytometry, antibody at 10 µg/ml on gp120 fixed to CEM cells CD4+/CXCR4+
[2] = biological target: W338S gp120 fixed to CEM cells CD4+/CXCR4+ (HIV-1 (HXB2 clone of HIV-IIIB)) (UniProt P04578); assay: as above
[3] = biological target: CD4 receptor on the cell surface (UniProt P01730); assay: cell-based or functional assay
[4] = biological target: CXCR4 receptor on the cell surface (UniProt P61073); assay: cell-based or functional assay

Substance | average fluorescence intensity [1] | average fluorescence intensity [2] | Percentage of fusion foci [3] | Percentage of fusion foci [4]
AcM 4.8d (antibody) | 76.8 | 209 | – | –
112W/S gp120 expressed on the surface of transfected HeLa-Tat cells (gp160 envelope with 112 W/S) (from UniProt P04578 33-856) | – | – | 0% | –
gp160 envelope with 112 W/F in gp120, expressed on transfected HeLa-Tat cells (from UniProt P04578 33-856) | – | – | 60% | –
AcM 17b (antibody) | 70.5 | 176 | – | –
gp160 envelope with 338 W/S in gp120, expressed on transfected HeLa-Tat cells (from UniProt P04578 33-856) | – | – | – | 0%
